Laboratory results as given in patent publication US20260345776 (published 2026).

How the values were obtained:
FOLR1 [1] = biological target: T1, FOLR1 (human, UniProt P15328); test: BLI, 25C
FOLR1 [2] = biological target: T1, FOLR1; test: FACS, FOLR+ KB cells

T1 sequence (P15328 25-234): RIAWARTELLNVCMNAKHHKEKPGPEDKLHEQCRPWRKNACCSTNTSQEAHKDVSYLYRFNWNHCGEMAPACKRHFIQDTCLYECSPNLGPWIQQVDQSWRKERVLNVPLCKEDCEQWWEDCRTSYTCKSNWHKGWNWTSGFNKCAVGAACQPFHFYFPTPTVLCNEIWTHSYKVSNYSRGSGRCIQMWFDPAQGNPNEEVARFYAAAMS

B1: b-SpyTag003(D2)-K(folate) (peptide)
chain: RGVPHIVMVDAYKRYKG
modifications: biotinylated; two D-arginine substitutions; additional C-terminal Lys conjugated to folate (folate is the FOLR1-binding moiety)
B1 was tested, and the Kd (FOLR1 [1]) was 0.345 nM and the Kd (FOLR1 [2]) was 16.1 nM.
